Results taken from patent US20080187980A1, “Method for identifying potential agonists or antagonists using the three-dimensional structure of caspase-7” (Vertex Pharmaceuticals Incorporated, priority 1999, published 2008).

T1: caspase-1 (Homo sapiens, UniProt P29466)
T1 sequence (P29466 120-297 limits assumed): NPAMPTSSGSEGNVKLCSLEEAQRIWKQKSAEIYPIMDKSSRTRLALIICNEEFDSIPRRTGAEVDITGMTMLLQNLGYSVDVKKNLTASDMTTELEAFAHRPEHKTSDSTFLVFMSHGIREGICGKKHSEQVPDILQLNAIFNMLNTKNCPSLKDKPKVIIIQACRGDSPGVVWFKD
T1 sequence (P29466 317-404 limits assumed): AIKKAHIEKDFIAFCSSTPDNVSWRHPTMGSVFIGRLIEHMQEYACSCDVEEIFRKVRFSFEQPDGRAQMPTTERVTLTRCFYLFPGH

T2: caspase-7 (Homo sapiens, UniProt P55210)
T2 sequence (P55210 24-198 limits assumed): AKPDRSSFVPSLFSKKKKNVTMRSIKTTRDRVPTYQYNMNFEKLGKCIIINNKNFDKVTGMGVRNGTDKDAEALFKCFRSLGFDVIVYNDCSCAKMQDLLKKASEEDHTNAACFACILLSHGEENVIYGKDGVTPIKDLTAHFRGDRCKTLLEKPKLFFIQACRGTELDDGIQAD
T2 sequence (P55210 207-303 limits assumed): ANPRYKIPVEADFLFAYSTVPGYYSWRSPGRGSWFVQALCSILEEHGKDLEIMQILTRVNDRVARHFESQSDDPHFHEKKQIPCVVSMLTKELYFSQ

T3: Caspase-4 (Homo sapiens, UniProt P49662)
T3 sequence (P49662 81-270 limits assumed): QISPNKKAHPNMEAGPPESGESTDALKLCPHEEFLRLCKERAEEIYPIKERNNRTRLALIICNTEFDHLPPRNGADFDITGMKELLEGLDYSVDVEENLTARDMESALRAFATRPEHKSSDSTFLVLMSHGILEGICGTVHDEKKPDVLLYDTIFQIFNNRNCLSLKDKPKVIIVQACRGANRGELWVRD
T3 sequence (P49662 290-377 limits assumed): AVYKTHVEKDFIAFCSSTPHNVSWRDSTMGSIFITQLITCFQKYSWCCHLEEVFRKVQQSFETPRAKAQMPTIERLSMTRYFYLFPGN

T4: Caspase-5 (Homo sapiens, UniProt P51878)
T4 sequence (P51878 137-327 limits assumed): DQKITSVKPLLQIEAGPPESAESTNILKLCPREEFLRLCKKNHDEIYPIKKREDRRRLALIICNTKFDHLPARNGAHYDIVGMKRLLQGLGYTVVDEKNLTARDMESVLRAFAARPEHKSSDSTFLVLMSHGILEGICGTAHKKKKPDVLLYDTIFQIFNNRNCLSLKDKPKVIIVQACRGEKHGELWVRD
T4 sequence (P51878 347-434 limits assumed): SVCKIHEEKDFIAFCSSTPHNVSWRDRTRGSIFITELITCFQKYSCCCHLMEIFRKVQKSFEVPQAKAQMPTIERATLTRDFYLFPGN

T5: Ac-DEVD-aminoemethylcoumarin
T5 chain: DEVD

B1: Wild-type caspase-8 (protein)
chain 1: RGYCLIINNHNFAKAREKVPKLHSIRDRNGTHLDAGALTTTFEELHFEIKPHDDCTVEQIYEILKIYQLMDHSNMDCFICCILSHGDKGIIYGTDGQEAPIYELTSQFTGLKCPSLAGKPKVFFIQACQGDNYQKGIPVETD
chain 2: LSSPQTRYIPDEADFLLGMATVNNCVSYRNPAEGTWYIQSLCQSLRERCPRGDDILTILTEVNYEVSNKDDKKNMGKQMPQPTFTLRKKLVFPSD
B2: Triple mutant caspase-8 (residues 233-479; Lys to Arg at residues 246, 250 and 253; Pro370 and Val371 removed) (protein)
chain: RGYCLIINNHNFARARERVPRLHSIRDRNGTHLDAGALTTTFEELHFEIKPHDDCTVEQIYEILKIYQLMDHSNMDCFICCILSHGDKGIIYGTDGQEAPIYELTSQFTGLKCPSLAGKPKVFFIQACQGDNYQKGIPVETDSEEQPYLEMDLSSPQTRYIPDEADFLLGMATVNNCVSYRNPAEGTWYIQSLCQSLRERCPRGDDILTILTEVNYEVSNKDDKKNMGKQMPQPTFTLRKKLVFPSD

Key:
[1] = molecular target: T1, caspase-1; details: cited from earlier work; for Ki: reported, Garcia-Calvo et al. 1998
[2] = system: group III caspases; details: cited from earlier work
[3] = molecular target: caspase-8 (Homo sapiens, UniProt Q14790); details: reported, Garcia-Calvo et al. 1998; cited from earlier work
[4] = molecular target: T2, caspase-7; details: reported, Garcia-Calvo et al. 1998; cited from earlier work
[5] = molecular target: T3, Caspase-4; details: Garcia-Calvo et al. 1998; cited from earlier work
[6] = system: all other group II and group III caspases except caspase-8; details: group II and group III caspases other than caspase-8; cited from earlier work
[7] = molecular target: T4, Caspase-5; details: Garcia-Calvo et al. 1998; cited from earlier work
[8] = molecular target: T5, Ac-DEVD-aminoemethylcoumarin

Chain of caspase-8 (Q14790 217-374 limits assumed, one chain of several): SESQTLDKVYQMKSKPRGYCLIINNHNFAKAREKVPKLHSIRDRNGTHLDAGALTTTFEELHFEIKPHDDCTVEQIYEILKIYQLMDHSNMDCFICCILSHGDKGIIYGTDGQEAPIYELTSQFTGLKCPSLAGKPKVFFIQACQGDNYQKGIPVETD

| Molecule | Ki [1] | Ki [3] | kcat/Km [8] | other results |
| --- | --- | --- | --- | --- |
| Ac-YVAD-CHO: tetrapeptide aldehyde inhibitor, SEQ ID NO: 4 | – | – | – | inhibitory potency against caspase-1 (in words) [1]: good inhibitory potency; inhibitory potency against group III caspases (in words) [2]: modest inhibitory potency |
| acetyl-Asp-Glu-Val-Asp-CHO [Ac-DEVD-CHO] | 18 nM | 0.92 nM | – | Ki [4]: 1.6 nM |
| AcWEHD-CHO (Ac-WEHD-aldehyde; SMILES CC(=O)N[C@@H](Cc1c[nH]c2ccccc12)C(=O)N[C@@H](CCC(=O)O)C(=O)N[C@@H](Cc1c[nH]cn1)C(=O)N[C@H](C=O)CC(=O)O) | 0.056 nM | 21 nM | – | Ki [5]: 97 nM; inhibition of all other group II and group III caspases except caspase-8 (in words) [6]: poor inhibitor; Ki [7]: 43 nM |
| B1 | – | – | both enzymes appear to be indistinguishable, yielding a kcat/Km of 1×10^5 Ml-s^1-^1 | – |
| B2 | – | – | both enzymes appear to be indistinguishable, yielding a kcat/Km of 1×10^5 Ml-s^1-^1 | – |
